B1: Pistol ribozyme (parent)
chain: GGGUCGUUGUUCCAUAAUCGCGUGGAUAUGGCACGCAAGUUUCUACCGGGCACCGUAAAUGUCCGACUGGAGCCGUUCGGGCGGCUAUAAACAGACCUCAGGCCCGAAGCGUGGCGGCACCUGCCGCCGGUGGUAAAAAAGAUCGGAAGAGCACACGUCU

Variants of: B1
Assay: aptazyme ON/OFF ratio, guanine; higher = stronger switching; co-transcriptional cleavage with and without guanine

Variant	aptazyme ON/OFF ratio
GGGUCGUAAAGGUAUAAUCGCGUGGAUAUGGCACGCAAGUUUCUACCGGGCACCGUAAAUGUCCGACUGGAGCCGUUCGGGCGGCUAUAAACAGACCUCAGGCCCGAAGCGUGGCGGCACCUGCCGCCGGUGGUAAAAAAGAUCGGAAGAGCACACGUCU [U8A G9A U10A U11G C12G C13U]	1.29
GGGUCGUAAAGGGAUAAUCGCGUGGAUAUGGCACGCAAGUUUCUACCGGGCACCGUAAAUGUCCGACUGGAGCCGUUCGGGCGGCUAUAAACAGACCUCAGGCCCGAAGCGUGGCGGCACCUGCCGCCGGUGGUAAAAAAGAUCGGAAGAGCACACGUCU [U8A G9A U10A U11G C12G C13G]	1.4
GGGUCGUAAAGGAAUAAUCGCGUGGAUAUGGCACGCAAGUUUCUACCGGGCACCGUAAAUGUCCGACUGGAGCCGUUCGGGCGGCUAUAAACAGACCUCAGGCCCGAAGCGUGGCGGCACCUGCCGCCGGUGGUAAAAAAGAUCGGAAGAGCACACGUCU [U8A G9A U10A U11G C12G C13A]	1.21
GGGUCGUAAACAUAUAAUCGCGUGGAUAUGGCACGCAAGUUUCUACCGGGCACCGUAAAUGUCCGACUGGAGCCGUUCGGGCGGCUAUAAACAGACCUCAGGCCCGAAGCGUGGCGGCACCUGCCGCCGGUGGUAAAAAAGAUCGGAAGAGCACACGUCU [U8A G9A U10A U11C C12A C13U]	1.25
GGGUCGUAAACAGAUAAUCGCGUGGAUAUGGCACGCAAGUUUCUACCGGGCACCGUAAAUGUCCGACUGGAGCCGUUCGGGCGGCUAUAAACAGACCUCAGGCCCGAAGCGUGGCGGCACCUGCCGCCGGUGGUAAAAAAGAUCGGAAGAGCACACGUCU [U8A G9A U10A U11C C12A C13G]	1.16
GGGUCGUAAACAAAUAAUCGCGUGGAUAUGGCACGCAAGUUUCUACCGGGCACCGUAAAUGUCCGACUGGAGCCGUUCGGGCGGCUAUAAACAGACCUCAGGCCCGAAGCGUGGCGGCACCUGCCGCCGGUGGUAAAAAAGAUCGGAAGAGCACACGUCU [U8A G9A U10A U11C C12A C13A]	1.19
GGGUCGUAAACCAAUAAUCGCGUGGAUAUGGCACGCAAGUUUCUACCGGGCACCGUAAAUGUCCGACUGGAGCCGUUCGGGCGGCUAUAAACAGACCUCAGGCCCGAAGCGUGGCGGCACCUGCCGCCGGUGGUAAAAAAGAUCGGAAGAGCACACGUCU [U8A G9A U10A U11C C13A]	1.04
GGGUCGUAAACCUAUAAUCGCGUGGAUAUGGCACGCAAGUUUCUACCGGGCACCGUAAAUGUCCGACUGGAGCCGUUCGGGCGGCUAUAAACAGACCUCAGGCCCGAAGCGUGGCGGCACCUGCCGCCGGUGGUAAAAAAGAUCGGAAGAGCACACGUCU [U8A G9A U10A U11C C13U]	1.05
GGGUCGUAAACCGAUAAUCGCGUGGAUAUGGCACGCAAGUUUCUACCGGGCACCGUAAAUGUCCGACUGGAGCCGUUCGGGCGGCUAUAAACAGACCUCAGGCCCGAAGCGUGGCGGCACCUGCCGCCGGUGGUAAAAAAGAUCGGAAGAGCACACGUCU [U8A G9A U10A U11C C13G]	1.04
GGGUCGUAAAGCUAUAAUCGCGUGGAUAUGGCACGCAAGUUUCUACCGGGCACCGUAAAUGUCCGACUGGAGCCGUUCGGGCGGCUAUAAACAGACCUCAGGCCCGAAGCGUGGCGGCACCUGCCGCCGGUGGUAAAAAAGAUCGGAAGAGCACACGUCU [U8A G9A U10A U11G C13U]	1.18
GGGUCGUAAAGCAAUAAUCGCGUGGAUAUGGCACGCAAGUUUCUACCGGGCACCGUAAAUGUCCGACUGGAGCCGUUCGGGCGGCUAUAAACAGACCUCAGGCCCGAAGCGUGGCGGCACCUGCCGCCGGUGGUAAAAAAGAUCGGAAGAGCACACGUCU [U8A G9A U10A U11G C13A]	1.12
GGGUCGUAAAGCGAUAAUCGCGUGGAUAUGGCACGCAAGUUUCUACCGGGCACCGUAAAUGUCCGACUGGAGCCGUUCGGGCGGCUAUAAACAGACCUCAGGCCCGAAGCGUGGCGGCACCUGCCGCCGGUGGUAAAAAAGAUCGGAAGAGCACACGUCU [U8A G9A U10A U11G C13G]	1.08
GGGUCGUAAACCCAUAAUCGCGUGGAUAUGGCACGCAAGUUUCUACCGGGCACCGUAAAUGUCCGACUGGAGCCGUUCGGGCGGCUAUAAACAGACCUCAGGCCCGAAGCGUGGCGGCACCUGCCGCCGGUGGUAAAAAAGAUCGGAAGAGCACACGUCU [U8A G9A U10A U11C]	1.05
GGGUCGUAAAGCCAUAAUCGCGUGGAUAUGGCACGCAAGUUUCUACCGGGCACCGUAAAUGUCCGACUGGAGCCGUUCGGGCGGCUAUAAACAGACCUCAGGCCCGAAGCGUGGCGGCACCUGCCGCCGGUGGUAAAAAAGAUCGGAAGAGCACACGUCU [U8A G9A U10A U11G]	1.34
GGGUCGUAAACGUAUAAUCGCGUGGAUAUGGCACGCAAGUUUCUACCGGGCACCGUAAAUGUCCGACUGGAGCCGUUCGGGCGGCUAUAAACAGACCUCAGGCCCGAAGCGUGGCGGCACCUGCCGCCGGUGGUAAAAAAGAUCGGAAGAGCACACGUCU [U8A G9A U10A U11C C12G C13U]	1.25
GGGUCGUAAACGAAUAAUCGCGUGGAUAUGGCACGCAAGUUUCUACCGGGCACCGUAAAUGUCCGACUGGAGCCGUUCGGGCGGCUAUAAACAGACCUCAGGCCCGAAGCGUGGCGGCACCUGCCGCCGGUGGUAAAAAAGAUCGGAAGAGCACACGUCU [U8A G9A U10A U11C C12G C13A]	1.16
GGGUCGUAAACGGAUAAUCGCGUGGAUAUGGCACGCAAGUUUCUACCGGGCACCGUAAAUGUCCGACUGGAGCCGUUCGGGCGGCUAUAAACAGACCUCAGGCCCGAAGCGUGGCGGCACCUGCCGCCGGUGGUAAAAAAGAUCGGAAGAGCACACGUCU [U8A G9A U10A U11C C12G C13G]	1.21
GGGUCGUAAACUCAUAAUCGCGUGGAUAUGGCACGCAAGUUUCUACCGGGCACCGUAAAUGUCCGACUGGAGCCGUUCGGGCGGCUAUAAACAGACCUCAGGCCCGAAGCGUGGCGGCACCUGCCGCCGGUGGUAAAAAAGAUCGGAAGAGCACACGUCU [U8A G9A U10A U11C C12U]	1.08

Variant	aptazyme ON/OFF ratio
GGGUCGUAAACACAUAAUCGCGUGGAUAUGGCACGCAAGUUUCUACCGGGCACCGUAAAUGUCCGACUGGAGCCGUUCGGGCGGCUAUAAACAGACCUCAGGCCCGAAGCGUGGCGGCACCUGCCGCCGGUGGUAAAAAAGAUCGGAAGAGCACACGUCU [U8A G9A U10A U11C C12A]	1.09
GGGUCGUAAACGCAUAAUCGCGUGGAUAUGGCACGCAAGUUUCUACCGGGCACCGUAAAUGUCCGACUGGAGCCGUUCGGGCGGCUAUAAACAGACCUCAGGCCCGAAGCGUGGCGGCACCUGCCGCCGGUGGUAAAAAAGAUCGGAAGAGCACACGUCU [U8A G9A U10A U11C C12G]	1.13
GGGUCGUAAACUAAUAAUCGCGUGGAUAUGGCACGCAAGUUUCUACCGGGCACCGUAAAUGUCCGACUGGAGCCGUUCGGGCGGCUAUAAACAGACCUCAGGCCCGAAGCGUGGCGGCACCUGCCGCCGGUGGUAAAAAAGAUCGGAAGAGCACACGUCU [U8A G9A U10A U11C C12U C13A]	1.14
GGGUCGUAAACUGAUAAUCGCGUGGAUAUGGCACGCAAGUUUCUACCGGGCACCGUAAAUGUCCGACUGGAGCCGUUCGGGCGGCUAUAAACAGACCUCAGGCCCGAAGCGUGGCGGCACCUGCCGCCGGUGGUAAAAAAGAUCGGAAGAGCACACGUCU [U8A G9A U10A U11C C12U C13G]	1.17
GGGUCGUAAACUUAUAAUCGCGUGGAUAUGGCACGCAAGUUUCUACCGGGCACCGUAAAUGUCCGACUGGAGCCGUUCGGGCGGCUAUAAACAGACCUCAGGCCCGAAGCGUGGCGGCACCUGCCGCCGGUGGUAAAAAAGAUCGGAAGAGCACACGUCU [U8A G9A U10A U11C C12U C13U]	1.15
GGGUCGUAAAACAAUAAUCGCGUGGAUAUGGCACGCAAGUUUCUACCGGGCACCGUAAAUGUCCGACUGGAGCCGUUCGGGCGGCUAUAAACAGACCUCAGGCCCGAAGCGUGGCGGCACCUGCCGCCGGUGGUAAAAAAGAUCGGAAGAGCACACGUCU [U8A G9A U10A U11A C13A]	1.27
GGGUCGUAAAACGAUAAUCGCGUGGAUAUGGCACGCAAGUUUCUACCGGGCACCGUAAAUGUCCGACUGGAGCCGUUCGGGCGGCUAUAAACAGACCUCAGGCCCGAAGCGUGGCGGCACCUGCCGCCGGUGGUAAAAAAGAUCGGAAGAGCACACGUCU [U8A G9A U10A U11A C13G]	1.06
GGGUCGUAAAACUAUAAUCGCGUGGAUAUGGCACGCAAGUUUCUACCGGGCACCGUAAAUGUCCGACUGGAGCCGUUCGGGCGGCUAUAAACAGACCUCAGGCCCGAAGCGUGGCGGCACCUGCCGCCGGUGGUAAAAAAGAUCGGAAGAGCACACGUCU [U8A G9A U10A U11A C13U]	1.09
GGGUCGUAAAGACAUAAUCGCGUGGAUAUGGCACGCAAGUUUCUACCGGGCACCGUAAAUGUCCGACUGGAGCCGUUCGGGCGGCUAUAAACAGACCUCAGGCCCGAAGCGUGGCGGCACCUGCCGCCGGUGGUAAAAAAGAUCGGAAGAGCACACGUCU [U8A G9A U10A U11G C12A]	1.01
GGGUCGUAAAGGCAUAAUCGCGUGGAUAUGGCACGCAAGUUUCUACCGGGCACCGUAAAUGUCCGACUGGAGCCGUUCGGGCGGCUAUAAACAGACCUCAGGCCCGAAGCGUGGCGGCACCUGCCGCCGGUGGUAAAAAAGAUCGGAAGAGCACACGUCU [U8A G9A U10A U11G C12G]	1.15
GGGUCGUAAAGUCAUAAUCGCGUGGAUAUGGCACGCAAGUUUCUACCGGGCACCGUAAAUGUCCGACUGGAGCCGUUCGGGCGGCUAUAAACAGACCUCAGGCCCGAAGCGUGGCGGCACCUGCCGCCGGUGGUAAAAAAGAUCGGAAGAGCACACGUCU [U8A G9A U10A U11G C12U]	1.15
GGGUCGUAAAGAUAUAAUCGCGUGGAUAUGGCACGCAAGUUUCUACCGGGCACCGUAAAUGUCCGACUGGAGCCGUUCGGGCGGCUAUAAACAGACCUCAGGCCCGAAGCGUGGCGGCACCUGCCGCCGGUGGUAAAAAAGAUCGGAAGAGCACACGUCU [U8A G9A U10A U11G C12A C13U]	1.11
GGGUCGUAAAGAGAUAAUCGCGUGGAUAUGGCACGCAAGUUUCUACCGGGCACCGUAAAUGUCCGACUGGAGCCGUUCGGGCGGCUAUAAACAGACCUCAGGCCCGAAGCGUGGCGGCACCUGCCGCCGGUGGUAAAAAAGAUCGGAAGAGCACACGUCU [U8A G9A U10A U11G C12A C13G]	1.18
GGGUCGUAAAGAAAUAAUCGCGUGGAUAUGGCACGCAAGUUUCUACCGGGCACCGUAAAUGUCCGACUGGAGCCGUUCGGGCGGCUAUAAACAGACCUCAGGCCCGAAGCGUGGCGGCACCUGCCGCCGGUGGUAAAAAAGAUCGGAAGAGCACACGUCU [U8A G9A U10A U11G C12A C13A]	1.03
GGGUCGUAACUCCAUAAUCGCGUGGAUAUGGCACGCAAGUUUCUACCGGGCACCGUAAAUGUCCGACUGGAGCCGUUCGGGCGGCUAUAAACAGACCUCAGGCCCGAAGCGUGGCGGCACCUGCCGCCGGUGGUAAAAAAGAUCGGAAGAGCACACGUCU [U8A G9A U10C]	2.54
GGGUCGUAAAGUAAUAAUCGCGUGGAUAUGGCACGCAAGUUUCUACCGGGCACCGUAAAUGUCCGACUGGAGCCGUUCGGGCGGCUAUAAACAGACCUCAGGCCCGAAGCGUGGCGGCACCUGCCGCCGGUGGUAAAAAAGAUCGGAAGAGCACACGUCU [U8A G9A U10A U11G C12U C13A]	1.3
GGGUCGUAAAGUGAUAAUCGCGUGGAUAUGGCACGCAAGUUUCUACCGGGCACCGUAAAUGUCCGACUGGAGCCGUUCGGGCGGCUAUAAACAGACCUCAGGCCCGAAGCGUGGCGGCACCUGCCGCCGGUGGUAAAAAAGAUCGGAAGAGCACACGUCU [U8A G9A U10A U11G C12U C13G]	1.18
GGGUCGUAAAGUUAUAAUCGCGUGGAUAUGGCACGCAAGUUUCUACCGGGCACCGUAAAUGUCCGACUGGAGCCGUUCGGGCGGCUAUAAACAGACCUCAGGCCCGAAGCGUGGCGGCACCUGCCGCCGGUGGUAAAAAAGAUCGGAAGAGCACACGUCU [U8A G9A U10A U11G C12U C13U]	1.4

Reference: the RNAGym collection of RNA variant scans (doi:10.1021/acssynbio.7b00057)
